{"source": "patent US11780902B1", "about": "“Receptor/histidine kinase fusion constructs and uses thereof” (priority 2018, dated 2023)", "key": {"[1]": {"test_system": "PhoB responsive promoter driving a β-galactosidase reporter gene", "details": "E. coli BW23423; maltose control vs ribose; X-Gal; functional = off without ligand, on with ligand"}, "[2]": {"test_system": "plant pho promoter: luciferase reporter gene", "test": "Luciferase reporter in transgenic Arabidopsis, circuit RBP→TrzPhoR→PhoBVP64, exposure to ribose", "assay_type": "in vivo", "details": "0 hours vs 24 hours after exposure to ribose", "protocol": "FIG. 9A and FIG. 9B. Imaging of a luciferase gene reporter in transgenic Arabidopsis with the signaling circuit Ribose Binding Protein (RBP)→TrzPhoR→PhoBVP64 activating a plant pho promoter: luciferase reporter gene FIG. 9A. Four transgenic Arabidopsis lines at 0 hours (no exposure to ribose) top panel and 24 hours after exposure to ribose bottom panel. FIG. 9B. Quantification of luciferase activity from FIG. 9A.\nBecause the ground state of a histidine kinase is such that the kinase is active, “kinase on” and the predominate signaling phenotype seen in non-functional fusions is “kinase on,” the inventors reasoned that the valine at the D position is essential in maintaining the “kinase off” state in the absence of ligand dependent signaling. Fusions where the D position valine is replaced by alanine, glycine (the two hydrophobic amino acids smaller than valine) or a methionine (the D position residue of PhoR) results in constitutive activation (FIG. 8). E. coli has 10 HKs, including EnvZ, with HAMP domains adjacent to the HK coiled coil (FIG. 8). EnvZ is the only HK with a valine in the A/D position. There are 4 other amino acids, glutamate, isoleucine, leucine and threonine that occupy the A/D position in the 9 other E. coli HKs with a HAMP/HK coiled coil A/D overlap. […]"}, "[3]": {"test_system": "PhoB responsive promoter driving a β-galactosidase reporter gene", "assay_type": "cell-based, E. coli"}, "[4]": {"details": "cited from earlier work"}, "GFP reporter gene": {"test_system": "GFP reporter gene", "test": "Maltose / aspartate induction of Tar HK fusions, GFP reporter gene fluorescence, FACS screen", "assay_type": "cell-based, E. coli", "details": "for maltose inducibility: maltose via MBP"}}, "data": [{"molecule": "TrzPhoR: coiled coil based fusion of Trz (Trg chemotactic receptor/EnvZ histidine kinase fusion) to PhoR histidine kinase, SEQ ID NO:2 (protein) MNTTPSQRLGFLHHIRLVPLFACILGGILVLFALSSALAGYFLWQADRDQRDVTAEIEIRTGLANSSDFLRSARINMIQAGAASRIAEMEAMKRNIAQAESEIKQSQQGYRAYQNRPVKTPADEALDTELNQRFQAYITGMQPMLKYAKNGMFEAIINHESEQIRPLDNAYTDILNKAVKIRSTRANQLAELAHQRTRLGGMFMIGAFVLALVMTLITFMVLRRIVIRPLQHAAQRIEKIASGDLTMNDEPAGRNEIGRLSRHLQHMAAGVKQLEGARRNFFANVSHELRTPLTVLQGYLEMMNEQPLEGAVREKALHTMREQTQRMEGLVKQLLTLSKIEAAPTHLLNEKVDVPMMLRVVEREAQTLSQKKQTFTFEIDNGLKVSGNEDQLRSAISNLVYNAVNHTPEGTHITVRWQRVPHGAEFSVEDNGPGIAPEHIPRLTERFYRVDKARSRQTGGSGLGLAIVKHAVNHHESRLNIESTVGKGTRFSFVIPERLIAKNSD", "values": [{"measurement": "signaling phenotype of the fusion (ribose inducible β-galactosidase activity)", "setting": "[1]", "value": "functional"}, {"measurement": "function in the plant detector system (luciferase activity)", "setting": "[2]", "value": "highly functional"}]}, {"molecule": "PhoQTrzPhoR: Mg^2+ responsive PhoQ receptor fused to TrzPhoR at the D position, SEQ ID NO:40 (protein, Fusion protein) MPGRSKWYRRWRPRSLQARQLLAASLSLVAFLALAGYALDVAFADTAEKNLRERLKNYASAYAANIDFVRDGSLYIGGQPPDPRFDVPGGGLYVEVVRPDESWTSMSAEGPNIPHGRMLEPRQEEFIGPLEMTQIDGSLGQLYRYGLGVSYVEREHGGEIPYTIYVMEDARSMGAQLRVFRGAVWFYLGSAGVVLLVLQAFILQWSLRPLRRVINELTKVQRGEIQRMSEQHPRELEPLTDSINAFIESVKQLEGARRNFFANVSHELRTPLTVLQGYLEMMNEQPLEGAVREKALHTMREQTQRMEGLVKQLLTLSKIEAAPTHLLNEKVDVPMMLRVVEREAQTLSQKKQTFTFEIDNGLKVSGNEDQLRSAISNLVYNAVNHTPEGTHITVRWQRVPHGAEFSVEDNGPGIAPEHIPRLTERFYRVDKARSRQTGGSGLGLAIVKHAVNHHESRLNIESTVGKGTRFSFVIPERLIAKNSD", "values": [{"measurement": "Mg^2+ signaling (β-galactosidase activity)", "setting": "[3]", "value": "increase in Mg^2+ signaling"}]}, {"molecule": "Taz: Tar chemotactic receptor fused to EnvZ histidine kinase at conserved HAMP domain, SEQ ID NO:38 (protein, Fusion protein) MINRIRVVTLLVMVLGVFALLQLISGSLFFSSLHHSQKSFVVSNQLREQQGELTSTWDLMLQTRINLSRSAVRMMMDSSNQQSNAKVELLDSARKTLAQAATHYKKFKSMAPLPEMVATSRNIDEKYKNYYTALTELIDYLDYGNTGAYFAQPTQGMQNAMGERFAQYALSSEKLYRDIVTDNADDYRFAQWQLAVIALVVVLILLVAWYGIRRMLLTPLAKIIAHIREIAGGNLANTLTIDGRSEMGDLAQSVSHMAAGVKQLADDRTLLMAGVSHDLRTPLTRIRLATEMMSEQDGYLAESINKDIEECNAIIEQFIDYLRTGQEMPMEMADLNAVLGEVIAAESGYEREIETALYPGSIEVKMHPLSIKRAVANMVVNAARYGNGWIKVSSGTEPNRAWFQVEDDGPGIAPEQRKHLFQPFVRGDSARTISGTGLGLAIVQRIVDNHNGMLELGTSERGGLSIRAWLPVPVTRAQGTTKEG", "values": [{"measurement": "induction by aspartate", "setting": "[4]; aspartate", "value": "retains the ability to be induced by aspartate"}, {"measurement": "response to maltose", "setting": "[4]; maltose", "value": "no longer shows a response to maltose"}]}, {"molecule": "TazPhoR: TrzPhoR fusion with the Tar chemotactic receptor replacing the Trg chemotactic receptor, SEQ ID NO:16 (protein, Fusion protein) MKLLSKTFLILTLTFFFFGIALAKMINRIRVVTLLVMVLGVFALLQLISGSLFFSSLHHSQKSFVVSNQLREQQGELTSTWDLMLQTRINLSRSAVRMMMDSSNQQSNAKVELLDSARKTLAQAATHYKKFKSMAPLPEMVATSRNIDEKYKNYYTALTELIDYLDYGNTGAYFAQPTQGMQNAMGEAFAQYALSSEKLYRDIVTDNADDYRFAQWQLAVIALVVVLILLVAWYGIRRMLLTPLAKIIAHIREIAGGNLANTLTIDGRSEMGDLAQSVSHMAAGVKQLEGARRNFFANVSHELRTPLTVLQGYLEMMNEQPLEGAVREKALHTMREQTQRMEGLVKQLLTLSKIEAAPTHLLNEKVDVPMMLRVVEREAQTLSQKKQTFTFEIDNGLKVSGNEDQLRSAISNLVYNAVNHTPEGTHITVRWQRVPHGAEFSVEDNGPGIAPEHIPRLTERFYRVDKARSRQTGGSGLGLAIVKHAVNHHESRLNIESTVGKGTRFSFVIPERLIAKNSD", "values": [{"measurement": "aspartate inducibility", "setting": "GFP reporter gene", "value": "aspartate inducibility of both fusions was observed"}, {"measurement": "maltose inducibility", "setting": "GFP reporter gene", "value": "no maltose inducibility"}]}, {"molecule": "Tac8: TrzChim3-8 with the chemotactic receptor Tar replacing the chemotactic receptor Trg, SEQ ID NO:22 (protein, Fusion protein) MINRIRVVTLLVMVLGVFALLQLISGSLFFSSLHHSQKSFVVSNQLREQQGELTSTWDLMLQTRINLSRSAVRMMMDSSNQQSNAKVELLDSARKTLAQAATHYKKFKSMAPLPEMVATSRNIDEKYKNYYTALTELIDYLDYGNTGAYFAQPTQGMQNAMGERFAQYALSSEKLYRDIVTDNADDYRFAQWQLAVIALVVVLILLVAWYGIRRMLLTPLAKIIAHIREIAGGNLANTLTIDGRSEMGDLAQSVSHMAAGVKQLRGVRTLLMAGVSHDLRTPLTVLQGYLEMMNEQPLEGAVREKALHTMREQTQRMNAIIEQFIDYLRTGQEMPMEMADLNAVLGEVIAAESGYEREIETALYPGSIEVKMHPLSIKRAVANMVVNAARYGNGWIKVSSGTEPNRAWFQVEDDGPGIAPEQRKHLFQPFVRGDSARTISGTGLGLAIVQRIVDNHNGMLELGTSERGGLSIRAWLPVPVTRAQGTTKEG", "values": [{"measurement": "aspartate inducibility", "setting": "GFP reporter gene", "value": "aspartate inducibility of both fusions was observed"}, {"measurement": "maltose inducibility", "setting": "GFP reporter gene", "value": "no maltose inducibility"}]}, {"molecule": "TazPhoR 61: Maltose inducible directed evolution variant of TazPhoR, SEQ ID NO:18 (protein, Fusion protein) MKLLSKTFLILTLTFFFFGIALAKMINRIRVVTLLVMVLGVFALLQLISGSLFFSSLHHSQKSFVVSNQLREQQGELTSTWDLMLQTRINLSRSAVRMMMDSSNQQSNAKVELLDSARKTLAQAATHYKKFKSMAPLPEMVATSRNIDEKYKNYYTALTELIDYLDYGNTGAYFAQPTQGMQNAMGEAFAQYALSSEKLYRDIVTDNADDYRFAQWQLAVIALVVVLILLVAWYGIRRMLLTPLAKIIAHIREIAGGNLANTLTIDGRSEMGDLAQSVSHMAAGVKQLRRNFFANVSHELRTPLTVLQGYLEMMNEQPLEGAVREKALHTMREQTQRMEGLVKQLLTLSKIEAAPTHLLNEKVDVPMMLRVVEREAQTLSQKKQTFTFEIDNGLKVSGNEDQLRSAISNLVYNAVNHTPEGTHITVRWQRVPHGAEFSVEDNGPGIAPEHIPRLTERFYRVDKARSRQTGGSGLGLAIVKHAVNHHESRLNIESTVGKGTRFSFVIPERLIAKNSD", "values": [{"measurement": "maltose inducibility", "setting": "GFP reporter gene", "value": "Maltose inducible"}]}, {"molecule": "TazPhoR 86: Maltose inducible directed evolution variant of TazPhoR, SEQ ID NO:20 (protein, Fusion protein) MKLLSKTFLILTLTFFFFGIALAKMINRIRVVTLLVMVLGVFALLQLISGSLFFSSLHHSQKSFVVSNQLREQQGELTSTWDLMLQTRINLSRSAVRMMMDSSNQQSNAKVELLDSARKTLAQAATHYKKFKSMAPLPEMVATSRNIDEKYKNYYTALTELIDYLDYGNTGAYFAQPTQGMQNAMGEAFAQYALSSEKLYRDIVTDNADDYRFAQWQLAVIALVVVLILLVAWYGIRRMLLTPLAKIIAHIREIAGGNLANTLTIDGRSEMGDLAQSVSHMAAGVKQLRVWRRNFFANVSHELRTPLTVLQGYLEMMNEQPLEGAVREKALHTMREQTQRMEGLVKQLLTLSKIEAAPTHLLNEKVDVPMMLRVVEREAQTLSQKKQTFTFEIDNGLKVSGNEDQLRSAISNLVYNAVNHTPEGTHITVRWQRVPHGAEFSVEDNGPGIAPEHIPRLTERFYRVDKARSRQTGGSGLGLAIVKHAVNHHESRLNIESTVGKGTRFSFVIPERLIAKNSD", "values": [{"measurement": "maltose inducibility", "setting": "GFP reporter gene", "value": "Maltose inducible"}]}, {"molecule": "Tac40: Maltose inducible directed evolution variant of Tac8, SEQ ID NO:24 (protein, Fusion protein) MINRIRVVTLLVMVLGVFALLQLISGSLFFSSLHHSQKSFVVSNQLREQQGELTSTWDLMLQTRINLSRSAVRMMMDSSNQQSNAKVELLDSARKTLAQAATHYKKFKSMAPLPEMVATSRNIDEKYKNYYTALTELIDYLDYGNTGAYFAQPTQGMQNAMGERFAQYALSSEKLYRDIVTDNADDYRFAQWQLAVIALVVVLILLVAWYGIRRMLLTPLAKIIAHIREIAGGNLANTLTIDGRSEMGDLAQSVSHMAAGVKQLVWRRTLLMAGVSHDLRTPLTVLQGYLEMMNEQPLEGAVREKALHTMREQTQRMNAIIEQFIDYLRTGQEMPMEMADLNAVLGEVIAAESGYEREIETALYPGSIEVKMHPLSIKRAVANMVVNAARYGNGWIKVSSGTEPNRAWFQVEDDGPGIAPEQRKHLFQPFVRGDSARTISGTGLGLAIVQRIVDNHNGMLELGTSERGGLSIRAWLPVPVTRAQGTTKEG", "values": [{"measurement": "maltose inducibility", "setting": "GFP reporter gene", "value": "Maltose inducible"}]}]}
